This experiment deals with J-base Binding Protein 1 (JBP1) (Leishmania tarentolae (assumed; species …, UniProt Q9U6M1). As to the kind of experiment: SPR. (In general: In SPR one partner is held on a chip, and binding of the other changes the refractive index at the surface.)

One may read the Kd as the constant that tells how readily two partners part at equilibrium. High values mean lower affinity, low ones higher affinity.

J-base Binding Protein 1 (JBP1) (Leishmania tarentolae, sequence (Q9U6M1 whole entry): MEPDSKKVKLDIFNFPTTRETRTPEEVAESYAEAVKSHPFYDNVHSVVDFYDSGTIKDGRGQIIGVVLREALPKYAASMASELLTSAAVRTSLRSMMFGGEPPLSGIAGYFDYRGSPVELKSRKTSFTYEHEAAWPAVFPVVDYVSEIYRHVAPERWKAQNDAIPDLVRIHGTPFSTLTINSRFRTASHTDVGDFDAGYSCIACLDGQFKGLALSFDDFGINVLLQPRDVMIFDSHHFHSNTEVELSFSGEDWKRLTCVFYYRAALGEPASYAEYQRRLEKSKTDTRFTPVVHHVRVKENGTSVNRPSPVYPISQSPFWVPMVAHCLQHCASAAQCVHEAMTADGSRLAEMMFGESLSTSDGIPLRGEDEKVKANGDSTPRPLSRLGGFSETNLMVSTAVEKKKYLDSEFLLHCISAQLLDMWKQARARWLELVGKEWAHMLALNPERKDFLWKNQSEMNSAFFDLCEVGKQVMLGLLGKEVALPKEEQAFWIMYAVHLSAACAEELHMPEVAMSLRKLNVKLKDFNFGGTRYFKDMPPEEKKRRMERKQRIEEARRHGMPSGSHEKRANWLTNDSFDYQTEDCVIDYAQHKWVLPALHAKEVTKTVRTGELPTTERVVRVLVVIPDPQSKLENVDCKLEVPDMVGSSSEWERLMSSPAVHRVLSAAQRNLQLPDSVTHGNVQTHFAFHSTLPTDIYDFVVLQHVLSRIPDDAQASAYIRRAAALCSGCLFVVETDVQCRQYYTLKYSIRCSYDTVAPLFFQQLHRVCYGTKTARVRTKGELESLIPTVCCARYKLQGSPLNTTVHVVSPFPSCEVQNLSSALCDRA

B1: nanobody-6 (Nb6) (VHH)
VHH: QVQLVESGGGLVQAGGSLRLSCAASGSFFSINDMGWYRQAPGKQRELVAVISSGGSTNYADSVEGRSTISSDNAKNTVYLQLSSLKPEDTAVYYCNANVRLREYRTTSYHYWGQGTQVTVSS
In the case of B1, the equilibrium dissociation constant (Kd) is 0.03 µM.

The values above are taken from article doi:10.1101/340778 (bioRxiv, 2018).
